Values quoted from earlier work, collected in US9421247B2, “Biodegradable nanoparticles as novel hemoglobin-based oxygen carriers and methods of using the same” (Vindico NanoBio Technology Inc., priority 2010, dated 2016).

Substance | adverse physiological effects on infusion/transfusion into animals
free hemoglobin: cell-free hemoglobin infused into animals | significant vasoconstriction and kidney damage
PolyHeme™: commercial acellular HBOC (Northfield Lab, Evanston, Ill., USA) | induce vasoconstriction
